Experimental data: PMC4601640, “Stability of the Human Hsp90-p50^Cdc37 Chaperone Complex against Nucleotides and Hsp90 Inhibitors, and the Influence of Phosphorylation by Casein Kinase 2” (Molecules, 2015)
“Also recorded” adds a separate entry of the source.

Key:
p50Cdc37 1-378 = p50Cdc37 1-378 (UniProt Q16543); assay: ELISA on immobilized GST-p50Cdc37, nucleotide dose-response; conditions: for other: IC50 of ATP against complex: ATP titration; for other: IC50 of ADP against complex: ADP titration
Hsp90β = Hsp90β (UniProt P08238); assay: as above; conditions: sites S13
[1] = target: human full-length Hsp90β (human) (UniProt P08238); assay: SEC; analytical Superdex200 10/300 GL, room temperature, 0.3 mL/min; 85 µM protein in 50 mM HEPES pH 7.5, 50 mM KCl, 5 mM MgCl2, 1 mM DTT; fractions on SDS-PAGE
[2] = target: Hsp82 (Saccharomyces cerevisiae) (UniProt P02829); conditions: cited from earlier work
[3] = reference: both proteins unphosphorylated, sites S226,S255,S13
[4] = reference: unphosphorylated Hsp90β, sites S226,S255

Hsp82 (Saccharomyces cerevisiae), sequence (P02829 whole entry): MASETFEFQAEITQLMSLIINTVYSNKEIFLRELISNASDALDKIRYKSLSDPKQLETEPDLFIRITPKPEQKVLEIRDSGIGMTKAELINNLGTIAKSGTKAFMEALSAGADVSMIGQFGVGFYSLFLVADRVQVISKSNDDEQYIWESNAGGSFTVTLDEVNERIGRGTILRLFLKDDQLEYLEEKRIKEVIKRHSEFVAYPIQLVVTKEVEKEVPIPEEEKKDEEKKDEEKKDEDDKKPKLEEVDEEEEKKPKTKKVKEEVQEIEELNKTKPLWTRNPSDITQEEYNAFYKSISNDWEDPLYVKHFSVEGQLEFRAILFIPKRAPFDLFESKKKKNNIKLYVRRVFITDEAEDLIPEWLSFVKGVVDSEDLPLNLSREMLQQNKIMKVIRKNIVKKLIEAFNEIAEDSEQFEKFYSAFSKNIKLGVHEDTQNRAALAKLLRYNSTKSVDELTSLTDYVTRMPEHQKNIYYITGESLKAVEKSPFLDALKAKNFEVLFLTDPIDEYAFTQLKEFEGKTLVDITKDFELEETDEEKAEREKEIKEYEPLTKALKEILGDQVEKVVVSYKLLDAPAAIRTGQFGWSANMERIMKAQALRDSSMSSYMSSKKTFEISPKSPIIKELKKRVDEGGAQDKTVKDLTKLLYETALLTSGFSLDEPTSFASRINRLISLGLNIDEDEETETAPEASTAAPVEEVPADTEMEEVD
p50Cdc37, sequence (Q16543 whole entry): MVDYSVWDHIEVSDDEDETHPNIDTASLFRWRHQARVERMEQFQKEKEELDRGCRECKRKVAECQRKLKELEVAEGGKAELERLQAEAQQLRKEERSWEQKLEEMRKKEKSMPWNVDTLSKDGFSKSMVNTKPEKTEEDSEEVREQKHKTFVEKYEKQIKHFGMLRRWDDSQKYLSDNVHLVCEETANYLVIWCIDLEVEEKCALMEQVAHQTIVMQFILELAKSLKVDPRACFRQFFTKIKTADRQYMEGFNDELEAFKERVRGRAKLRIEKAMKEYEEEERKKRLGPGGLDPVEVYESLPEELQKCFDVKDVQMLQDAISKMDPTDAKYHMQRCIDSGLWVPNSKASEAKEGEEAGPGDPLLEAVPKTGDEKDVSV
human full-length Hsp90β, P08238 1-724 (natural protein; other documents disagree on this pair), sequence (P08238 whole entry): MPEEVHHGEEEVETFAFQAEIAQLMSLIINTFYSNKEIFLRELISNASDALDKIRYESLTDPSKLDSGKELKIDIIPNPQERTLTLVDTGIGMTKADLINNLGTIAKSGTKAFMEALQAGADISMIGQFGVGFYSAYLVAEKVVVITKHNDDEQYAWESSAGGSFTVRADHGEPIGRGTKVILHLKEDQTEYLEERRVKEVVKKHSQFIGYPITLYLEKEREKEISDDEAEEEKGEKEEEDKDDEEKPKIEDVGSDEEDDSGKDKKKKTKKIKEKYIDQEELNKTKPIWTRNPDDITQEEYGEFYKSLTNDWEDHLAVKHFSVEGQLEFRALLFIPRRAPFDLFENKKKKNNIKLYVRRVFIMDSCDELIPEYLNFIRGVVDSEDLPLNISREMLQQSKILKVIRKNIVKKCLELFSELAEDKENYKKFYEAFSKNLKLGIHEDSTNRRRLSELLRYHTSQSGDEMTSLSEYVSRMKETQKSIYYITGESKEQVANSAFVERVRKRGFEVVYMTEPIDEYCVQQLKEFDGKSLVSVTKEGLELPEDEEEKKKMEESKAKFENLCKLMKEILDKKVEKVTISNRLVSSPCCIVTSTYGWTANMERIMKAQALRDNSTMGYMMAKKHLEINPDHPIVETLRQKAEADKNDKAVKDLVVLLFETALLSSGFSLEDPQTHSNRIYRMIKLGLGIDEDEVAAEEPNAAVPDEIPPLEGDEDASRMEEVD

With “Hsp90β (from UniProt P08238) both proteins CK2α-phosphorylated, ATP titration” the “other: IC50 of ATP against complex” value (p50Cdc37 1-378; [3]) was “weaker; reference >1000”.
For “Hsp90β (from UniProt P08238) both proteins CK2α-phosphorylated, ADP titration”, the “other: IC50 of ADP against complex” value (p50Cdc37 1-378; [3]) was “weaker; reference 500 ± 94”.
With “p50Cdc37 1-378 (from UniProt Q16543) CK2α-phosphorylated p50Cdc37, ATP titration” the “other: IC50 of ATP against complex” value (Hsp90β; reference: unphosphorylated p50Cdc37, ATP titration) was “same; reference >1000”.
In the case of “Hsp90β (from UniProt P08238) CK2α-phosphorylated Hsp90β, ATP titration”, the “other: IC50 of ATP against complex” value (p50Cdc37 1-378; [4]) is reported as “weaker; reference >1000”.
With “p50Cdc37 1-378 (from UniProt Q16543) CK2α-phosphorylated p50Cdc37, ADP titration” the “other: IC50 of ADP against complex” value (Hsp90β; reference: unphosphorylated p50Cdc37, ADP titration) was “weaker; reference 500 ± 94; also recorded: weaker; reference 220 ± 24”.
Work on “human full-length Hsp90β, P08238 1-724 (natural protein; other documents disagree on this pair)” yielded a stoichiometry N [1] of 2.
For p50Cdc37 (from UniProt Q16543), the Kd [2] is given as 1460 nM.
In the case of “Hsp90β (from UniProt P08238) CK2α-phosphorylated Hsp90β, ADP titration”, the “other: IC50 of ADP against complex” value (p50Cdc37 1-378; [4]) is reported as “weaker; reference 500 ± 94; also recorded: weaker; reference 270 ± 35”.
